“And” between values parts separate entries of the source, which are not always exact repeats. Equal entries are not always repeated.
Tests used:
[1] = target: T1, human DEspR (dual endothelin/VEGF signal peptide receptor) (human) (UniProt B0L3A2); assay: binding to DEspR on intact human cells, triplicate
T1 sequence: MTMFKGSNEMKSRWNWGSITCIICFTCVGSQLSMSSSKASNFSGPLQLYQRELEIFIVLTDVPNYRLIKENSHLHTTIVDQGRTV

[2] = target: DEspR on activated neutrophils (species of the neutrophils not stated for FIG. 6 / FIG. 17C); assay: cell-based or functional assay

B1: 6g8 mumab, murine anti-DEspR monoclonal antibody (pan-species reactive anti-Human/Rat/Monkey DEspR mAb), precursor of hu-6g8 (antibody, from a related filing, V domains shown)
VH: EVQLQESGGGLVQPGGSLKLSCAASGFDFSRYWMSWVRQAPGKGLEWIGEINPDSSTINYTPSLKDKFIISRDTAKKTLYLQMSKVRSEDTALYYCARHGRGMDYWSQGTSVTVSS
VL: DIVLTQTNQIMSASVGDRVSVTCKASQNVDSNVAWYQQKPGHSPKALIYSASYRYSRVPDRITGSGSGTDFTLTITNVQSKDLADYFCQQYHSYPLLAFGAGTKLELKR
EC50 [1]: 178 nM
inhibition of neutrophil (PMN) survival (IC50) [2]: > 198 nM
inhibition of survival (IC50), live cells counted by Trypan blue dye exclusion [2]: > 200 nM and > 30 µg/mL

Source: patent US20260077028A1
